Residue numbers refer to the chain shown, from its start.
Key:
mAREG-EGFd-mFc = target: T1, mAREG-EGFd-mFc (mouse, UniProt P31955 135-177); assay: SPR (Biacore T200)
T1 construct: also called EGF domain of mAREG (aa135-177) fused with mFc tag; not shown: mFc tag (Fc fragment of mouse IgG2a as for hAREG-EGFd-mFc)
T1 chain: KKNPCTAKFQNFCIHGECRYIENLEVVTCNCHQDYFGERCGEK

hAREG-H164N variant = target: T2, hAREG-H164N variant (human, UniProt P15514 142-184); assay: SPR (Biacore T200)
T2 construct: also called H164N variant of hAREG-EGFd
T2 chain: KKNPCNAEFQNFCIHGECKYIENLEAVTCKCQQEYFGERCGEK

hAREG-E149K variant = target: T3, hAREG-E149K variant (human, UniProt P15514 142-184); assay: SPR (Biacore T200)
T3 construct: also called E149K variant of hAREG-EGFd
T3 chain: T2 chain with E8K, N23H

mAREG-N164H variant = target: T4, mAREG-N164H variant (mouse, UniProt P31955 135-177, limits assumed); assay: SPR (Biacore T200)
T4 construct: Position is in hAREG numbering
T4 chain: T1 chain with N23H

hAREG-EGFd-mFc = target: T5, hAREG-EGFd-mFc (human; mouse, UniProt P15514 142-184); assay: SPR, Biacore T200; mAb captured on anti-human Fc chip, antigen in solution
T5 construct: Expressed in 293F cells; not shown: Fc fragment of mouse IgG2a
T5 chain: T2 chain with N23H
Method: (§1) To evaluate affinities of different mouse hybridoma mAbs or their humanized and engineered variants, SPR measurement was performed using Biacore T200 instrument. mAbs were captured on anti-human Fc CM5 biosensor chip surface, hAREG-EGFd-mFc, mAREG-EGFd-mFc or hAREG-98aa (purchased from PeproTech, cat #100-55B) in serial dilutions were injected over antibody-bound surface, followed by a dissociation phase. Association rates (Ka) and dissociation rates (Kd) were calculated using the one-to-one Langmuir binding model (BIA Evaluation Software, GE Life Sciences). The equilibrium dissociation constant (KD) was calculated as the ratio kd/ka.

hAREG-98aa = target: T6, hAREG-98aa (human, UniProt P15514 101-198); assay: as above
T6 construct: Bought protein
T6 sequence (looked up): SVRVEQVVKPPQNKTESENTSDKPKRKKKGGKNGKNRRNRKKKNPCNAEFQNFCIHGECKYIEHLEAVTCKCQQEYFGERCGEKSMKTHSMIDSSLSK
Method: as §1

B1: hu9C12v6 (antibody, V domains shown)
VH: EVQLVESGGGLVKPGGSLRLSCAASGFTFSSYPMSWVRQAPEKGLEWVSTISTGGTYTYYPDSVKGRFTISRDNAKNSLYLQMNSLRAEDTAVYYCARQGPIYYGNYYYGMDVWGQGTTVTVSS
VL: DVVMTQSPLSLPVTLGDPASISCRSSQSLVNQEGETYLHWYQQRPGQSPKLLIYKVSNRFDGVPDRFSGSGSGTDFTLKISRVEAEDVGVYYCSQSTHVPYTFGQGTKLEIK
notes: Humanized 9C12 variant
mAREG-EGFd-mFc
  binding result: no binding
hAREG-H164N variant
  binding result: no binding
hAREG-E149K variant
  binding result: binds
mAREG-N164H variant
  binding result: binds
hAREG-EGFd-mFc
  Kd: 0.398 nM
  koff: 0.000389 s⁻¹
  kon: 978000 M⁻¹ s⁻¹
hAREG-98aa
  Kd: 0.188 nM
  koff: 0.00457 s⁻¹
  kon: 2.43e+07 M⁻¹ s⁻¹
